These results are taken from article PMC12316266, “Biochemical analysis of human eIF4E-DCP2 interaction: Implications for the relationship between translation initiation and decapping”.

In data set [1] the target is T1, Dcp2 (Homo sapiens, UniProt Q8IU60 1-420). The data set can be described thus: MST; no Mg2+; RNA pre-incubated with 80 nM eIF4E; Hill coefficient 1.99 ± 0.83; MST: 100 mM NaCl, 50 mM Tris-Cl pH 7.9, 1 mM DTT, 100 ug/ml BSA, 37 C (10 mM MgCl2 only when stated), 4 nM RNA; EMSA: same buffer plus 5% glycerol, no Mg2+, 24. The note with it: protein: recombinant; tags: His6-protein G-TEV tag, removed by TEV; label: 3' Cy5; single strand.

Data set [2] has as its target T2, eIF4E (Homo sapiens, UniProt P06730 1-217). The data set can be described thus: EMSA; 10 mM MgOAc; 2.5 uM eIF4E; Cy5 label implied; MST: 100 mM NaCl, 50 mM Tris-Cl pH 7.9, 1 mM DTT, 100 ug/ml BSA, 37 C (10 mM MgCl2 only when stated), 4 nM RNA; EMSA: same buffer plus 5% glycerol, no Mg2+, 24. The note with it: protein: recombinant; tags: His6-protein G-TEV tag, removed by TEV; label: 3' Cy5; single strand.

For data set [3], the target named is T1, Dcp2. In words: MST; no Mg2+; Hill coefficient 1.56 ± 0.49; MST: 100 mM NaCl, 50 mM Tris-Cl pH 7.9, 1 mM DTT, 100 ug/ml BSA, 37 C (10 mM MgCl2 only when stated), 4 nM RNA; EMSA: same buffer plus 5% glycerol, no Mg2+, 24. Conditions: protein: recombinant; tags: His6-protein G-TEV tag, removed by TEV; label: 3' Cy5; single strand. (In general: In EMSA bound probe runs differently from free probe, usually more slowly.)

A further data set deals with Dcp2 E147Q,E148Q (Homo sapiens, UniProt Q8IU60 1-420, E147Q;E148Q). The data set can be described thus: MST; no Mg2+ (implied); MST: 100 mM NaCl, 50 mM Tris-Cl pH 7.9, 1 mM DTT, 100 ug/ml BSA, 37 C (10 mM MgCl2 only when stated), 4 nM RNA; EMSA: same buffer plus 5% glycerol, no Mg2+, 24. Conditions: protein: recombinant; tags: His6-protein G-TEV tag, removed by TEV; label: 3' Cy5; single strand.

Data set [4] deals with T2, eIF4E. The data set can be described thus: EMSA; 10 mM MgOAc; 2.5 uM eIF4E; MST: 100 mM NaCl, 50 mM Tris-Cl pH 7.9, 1 mM DTT, 100 ug/ml BSA, 37 C (10 mM MgCl2 only when stated), 4 nM RNA; EMSA: same buffer plus 5% glycerol, no Mg2+, 24. Conditions: protein: recombinant; tags: His6-protein G-TEV tag, removed by TEV; label: 3' Cy5 (implied); single strand.
Data set [5] concerns the target T2, eIF4E. In words: EMSA; no Mg2+; 625 nM eIF4E; MST: 100 mM NaCl, 50 mM Tris-Cl pH 7.9, 1 mM DTT, 100 ug/ml BSA, 37 C (10 mM MgCl2 only when stated), 4 nM RNA; EMSA: same buffer plus 5% glycerol, no Mg2+, 24. The note with it: protein: recombinant; tags: His6-protein G-TEV tag, removed by TEV; single strand.
In data set [6] the target is T1, Dcp2. In words: MST; no Mg2+; Hill coefficient 1.22 ± 0.39; MST: 100 mM NaCl, 50 mM Tris-Cl pH 7.9, 1 mM DTT, 100 ug/ml BSA, 37 C (10 mM MgCl2 only when stated), 4 nM RNA; EMSA: same buffer plus 5% glycerol, no Mg2+, 24. The note with it: protein: recombinant; tags: His6-protein G-TEV tag, removed by TEV; label: 3' Cy5; single strand.
For data set [7], the target named is T1, Dcp2. In words: MST; no Mg2+; Hill coefficient 1.89 ± 0.78; MST: 100 mM NaCl, 50 mM Tris-Cl pH 7.9, 1 mM DTT, 100 ug/ml BSA, 37 C (10 mM MgCl2 only when stated), 4 nM RNA; EMSA: same buffer plus 5% glycerol, no Mg2+, 24. Conditions: protein: recombinant; tags: His6-protein G-TEV tag, removed by TEV; label: 3' Cy5; single strand.

T2 sequence (P06730 whole entry): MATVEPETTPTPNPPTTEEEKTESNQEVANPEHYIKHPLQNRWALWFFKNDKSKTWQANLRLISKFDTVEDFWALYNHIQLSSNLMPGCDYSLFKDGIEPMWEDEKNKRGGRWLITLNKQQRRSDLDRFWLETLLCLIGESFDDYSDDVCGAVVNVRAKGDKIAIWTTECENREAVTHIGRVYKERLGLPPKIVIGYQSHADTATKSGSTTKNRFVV

As for AGGAAAUAAGAGAGAAAAGAAGAGUAAGAAGAAAUAUAAGAGC (ssRNA, 5' m7GpppAm cap (2'-O-methyl on first A)) [m7G-capped 43-mer RNA, 3' Cy5], the “apparent K (half saturation)” value with Dcp2 [1] was 72 ± 20 nM; with Dcp2 [3], 157 ± 26 nM. For the same molecule, the binding result is “binds” in the data set with eIF4E [2] and “no binding” with Dcp2 E147Q,E148Q. In the case of AGGAAAUAAGAGAGAAAAGAAGAGUAAGAAGAAAUAUAAGAGC (ssRNA, 5' ApppAm cap (2'-O-methyl on first A)) [A-capped 43-mer RNA], in the data set with eIF4E [4], the binding result is “no binding”. In the case of AGGAAAUAAGAGAGAAAAGAAGAGUAAGAAGAAAUAUAAGAGC (ssRNA, 5' m7GpppAm cap (2'-O-methyl on first A)) [m7G-capped 43-mer RNA, 3' unlabeled], the binding result with eIF4E [5] is recorded as “binds”. As to AGGAAAUAAGAGAGAAAAGAAGAGUAAGAAGAAAUAUAAGAGC (ssRNA, 5' triphosphate) [5' triphosphate 43-mer RNA], the “apparent K (half saturation)” value with Dcp2 [6] turned out to be 151 ± 29 nM. In the data set with eIF4E [2], the binding result was “no binding”.

With AGGAAAUAAGAGAGAAAAGAAGAGUAAGAAGAAAUAUAAGAGC (ssRNA, 5' monophosphate) [5' monophosphate 43-mer RNA], the “apparent K (half saturation)” value in the data set with Dcp2 [7] was 96 ± 16 nM.
